Source: patent US20240228648A1

Assays:
[1] = biological target: recombinant biotinylated CD38-avi protein (extracellular domain of human CD38) (human) (UniProt P28907); assay: capture ELISA, antibody 0.781 nM, biotinylated CD38-avi 0.5 ug/ml
[2] = biological target: recombinant biotinylated CD38-avi protein (extracellular domain of human CD38) (human) (UniProt P28907); assay: competitive ELISA: plate coated with Darzalex (2 µg/ml); biotinylated CD38 (0.2 µg/ml) pre-incubated with soluble Darzalex (15 µg/ml), captured CD38 detected with streptavidin-HRP; replicate 1
[3] = biological target: recombinant biotinylated CD38-avi protein (extracellular domain of human CD38) (human) (UniProt P28907); assay: capture ELISA, antibody 0 nM (background), biotinylated CD38-avi 0.5 ug/ml
[4] = biological target: recombinant biotinylated CD38-avi protein (extracellular domain of human CD38) (human) (UniProt P28907); assay: capture ELISA, antibody 0.195 nM, biotinylated CD38-avi 0.5 ug/ml
[5] = biological target: recombinant biotinylated CD38-avi protein (extracellular domain of human CD38) (human) (UniProt P28907); assay: competitive ELISA, no competitor: plate coated with Darzalex (2 µg/ml); biotinylated CD38 alone, captured CD38 detected with streptavidin-HRP; replicate 1
[6] = biological target: recombinant biotinylated CD38-avi protein (extracellular domain of human CD38) (human) (UniProt P28907); assay: capture ELISA, antibody 12.5 nM, biotinylated CD38-avi 0.5 ug/ml
[7] = biological target: CD38 on the surface of Daudi cells (human) (UniProt P28907); assay: flow cytometry on Daudi cells, antibody 0.206 nM
[8] = biological target: recombinant biotinylated CD38-avi protein (extracellular domain of human CD38) (human) (UniProt P28907); assay: capture ELISA, antibody 3.125 nM, biotinylated CD38-avi 0.5 ug/ml
[9] = biological target: CD38 on the surface of Daudi cells (human) (UniProt P28907); assay: flow cytometry on Daudi cells, antibody 1.85 nM
[10] = biological target: CD38 on the surface of Daudi cells (human) (UniProt P28907); assay: flow cytometry on Daudi cells, antibody 1.617 nM (so in the source)
[11] = biological target: CD38 on the surface of Daudi cells (human) (UniProt P28907); assay: cell-based or functional assay
[12] = biological target: recombinant biotinylated CD38-avi protein (extracellular domain of human CD38) (human) (UniProt P28907); assay: capture ELISA, antibody 0.012 nM, biotinylated CD38-avi 0.5 ug/ml
[13] = biological target: recombinant biotinylated CD38-avi protein (extracellular domain of human CD38) (human) (UniProt P28907); assay: competitive ELISA, no competitor: plate coated with Darzalex (2 µg/ml); biotinylated CD38 alone, captured CD38 detected with streptavidin-HRP; replicate 2
[14] = biological target: CD38 on the surface of Daudi cells (human) (UniProt P28907); assay: flow cytometry on Daudi cells, antibody 0.069 nM
[15] = biological target: recombinant biotinylated CD38-avi protein (extracellular domain of human CD38) (human) (UniProt P28907); assay: competitive ELISA: plate coated with Darzalex (2 µg/ml); biotinylated CD38 (0.2 µg/ml) pre-incubated with soluble Darzalex (15 µg/ml), captured CD38 detected with streptavidin-HRP; replicate 2
[16] = biological target: recombinant biotinylated CD38-avi protein (extracellular domain of human CD38) (human) (UniProt P28907); assay: capture ELISA, antibody 50 nM, biotinylated CD38-avi 0.5 ug/ml
[17] = biological target: CD38 on the surface of Daudi cells (human) (UniProt P28907); assay: flow cytometry on Daudi cells, antibody 5.56 nM
[18] = biological target: CD38 on the surface of Daudi cells (human) (UniProt P28907); assay: flow cytometry on Daudi cells, antibody 50 nM
[19] = biological target: recombinant biotinylated CD38-avi protein (extracellular domain of human CD38) (human) (UniProt P28907); assay: capture ELISA, antibody 0.049 nM, biotinylated CD38-avi 0.5 ug/ml
[20] = biological target: CD38 on the surface of Daudi cells (human) (UniProt P28907); assay: flow cytometry on Daudi cells, antibody 16.7 nM
[21] = biological target: recombinant biotinylated CD38-avi protein (extracellular domain of human CD38) (human) (UniProt P28907); assay: capture ELISA: antibody captured by anti-human Fc, biotinylated CD38-avi 0.5 ug/ml, fit in GraphPad Prism
[22] = biological target: CD38 on the surface of Daudi cells (human) (UniProt P28907); assay: flow cytometry on Daudi cells, antibody 300 nM
[23] = biological target: CD38 on the surface of Daudi cells (human) (UniProt P28907); assay: flow cytometry on Daudi cells, anti-human IgG-Alexa647, fit in GraphPad Prism

OD450 [1]: 0.145 OD450 | OD450 [2]: 0.168 | OD450 [3]: 0.143 OD450 | OD450 [4]: 0.135 OD450 | OD450 [5]: 0.377 | OD450 [6]: 0.164 OD450 | Mean fluorescence [7]: 46700 | OD450 [8]: 0.172 OD450 | Mean fluorescence [9]: 574000 | Mean fluorescence [10]: 158000 | ADCC activity (luciferase) on Daudi cells at 0.0015 nM antibody [11]: 0.12 | ADCC activity (luciferase) on Daudi cells at 0.006 nM antibody [11]: 1.32 | ADCC activity (luciferase) on Daudi cells at 0.0244 nM antibody [11]: 3.88 | ADCC activity (luciferase) on Daudi cells at 0.098 nM antibody [11]: 14.7 | ADCC activity (luciferase) on Daudi cells at 0.39 nM antibody [11]: 40.9 | ADCC activity (luciferase) on Daudi cells at 1.56 nM antibody [11]: 57.2 | ADCC activity (luciferase) on Daudi cells at 6.25 nM antibody [11]: 61 | ADCC activity (luciferase) on Daudi cells at 25 nM antibody [11]: 64.1 | ADCC activity (luciferase) on Daudi cells at 100 nM antibody [11]: 66.5 | CDC: % live Daudi cells (P1) at 0.078 nM antibody [11]: 63.9% | CDC: % live Daudi cells (P1) at 0.156 nM antibody [11]: 75.2% | CDC: % live Daudi cells (P1) at 0.3125 nM antibody [11]: 70.6% | CDC: % live Daudi cells (P1) at 0.625 nM antibody [11]: 67.4% | CDC: % live Daudi cells (P1) at 1.25 nM antibody [11]: 55.6% | CDC: % live Daudi cells (P1) at 2.5 nM antibody [11]: 47.6% | CDC: % live Daudi cells (P1) at 5 nM antibody [11]: 40.9% | CDC: % live Daudi cells (P1) at 10 nM antibody [11]: 32.3% | OD450 [12]: 0.135 OD450 | OD450 [13]: 0.385 | Mean fluorescence [14]: 9320 | OD450 [15]: 0.176 | OD450 [16]: 0.171 OD450 | Mean fluorescence [17]: 1.09e+06 | Mean fluorescence [18]: 1.31e+06 | OD450 [19]: 0.147 OD450 | Mean fluorescence [20]: 1.34e+06 | Kd [21]: 1.64 nM | Mean fluorescence [22]: 1.29e+06 | Kd [23]: 3.26 nM
Substance: Darzalex (antibody)
